This is an account of results in paper PMC9599461, “Stereoselectivity in the Membrane Transport of Phenylethylamine Derivatives by Human Monoamine Transporters and Organic Cation Transporters 1, 2, and 3” (Biomolecules, 2022).

Values joined by “and” are separate entries in the source; they are usually repeats but may differ in a detail not shown here. Equal values may be shown once.

What all share (assay): cells, lysate or membranes
Substrate in data set [1]: NC[C@@H](O)c1ccc(O)cc1
Conditions: racemic substrate, two minutes, net uptake minus empty vector control, 37.0 °C.

Substrate in data set [2]: COc1cc(C(O)CN)ccc1O
Conditions: racemic substrate, two minutes, net uptake minus empty vector control, 37.0 °C.

Substrate in data set [3]: NCC(O)c1cccc(O)c1
Conditions: other: HEK293 cells overexpressing human OCT3; racemic substrate, two minutes; net uptake minus empty vector control; 37.0 °C.

Substrate in data set [4]: NC[C@H](O)c1ccc(O)cc1
Conditions: racemic substrate, two minutes, net uptake minus empty vector control, 37.0 °C.

Substrate in data set [5]: [H][C@](O)(CNC)c1ccc(O)cc1
Conditions: racemic substrate, two minutes, net uptake minus empty vector control, 37.0 °C.

Substrate in data set [6]: CNC[C@@H](O)c1cccc(O)c1
Conditions: racemic substrate, two minutes, net uptake minus empty vector control, 37.0 °C.

Substrate in data set [7]: CNC[C@@H](O)c1ccc(O)cc1
Conditions: racemic substrate, two minutes, net uptake minus empty vector control, 37.0 °C.

Substrate in data set [8]: CNCC(O)c1ccc(O)c(OC)c1
Conditions: racemic substrate, two minutes, net uptake minus empty vector control, 37.0 °C.

Substrate in data set [9]: CNC[C@H](O)c1cccc(O)c1
Conditions: racemic substrate, two minutes, net uptake minus empty vector control, 37.0 °C.

[10] abbreviates: other: HEK293 cells overexpressing human OCT3.
The mark [11] stands for this setting: other: HEK293 cells overexpressing human OCT1.

B1: OCT3 (Homo sapiens) (protein)
chain: MPSFDEALQRVGEFGRFQRRVFLLLCLTGVTFAFLFVGVVFLGTQPDHYWCRGPSAAALAERCGWSPEEEWNRTAPASRGPEPPERRGRCQRYLLEAANDSASATSALSCADPLAAFPNRSAPLVPCRGGWRYAQAHSTIVSEFDLVCVNAWMLDLTQAILNLGFLTGAFTLGYAADRYGRIVIYLLSCLGVGVTGVVVAFAPNFPVFVIFRFLQGVFGKGTWMTCYVIVTEIVGSKQRRIVGIVIQMFFTLGIIILPGIAYFIPNWQGIQLAITLPSFLFLLYYWVVPESPRWLITRKKGDKALQILRRIAKCNGKYLSSNYSEITVTDEEVSNPSFLDLVRTPQMRKCTLILMFAWFTSAVVYQGLVMRLGIIGGNLYIDFFISGVVELPGALLILLTIERLGRRLPFAASNIVAGVACLVTAFLPEGIAWLRTTVATLGRLGITMAFEIVYLVNSELYPTTLRNFGVSLCSGLCDFGGIIAPFLLFRLAAVWLELPLIIFGILASICGGLVMLLPETKGIALPETVDDVEKLGSPHSCKCGRNKKTPVSRSHL
Regarding B1, the Michaelis-Menten constant (Km) in data set [1] (setting [10]) was 20.1 µM; in data set [2] (setting [10]) it was 75.9 µM and 62.4 µM; in [3], 582 µM and 498 µM; in data set [4] (setting [10]) it was 25.1 µM; in [5] (setting [10]), 83.5 µM; in data set [6] (setting [10]), 205 µM. Further, the Km in [7] (setting [10]) is 75.3 µM; in [8] (setting [10]) it was 29.0 µM and 24.4 µM; in data set [9] (setting [10]), 244 µM. Moreover, the Vmax in data set [1] (setting [10]) is 1072 pmol × mg Protein^−1 × min^−1; in data set [2] (setting [10]), 1473 pmol × mg Protein^−1 × min^−1 and 1352 pmol × mg Protein^−1 × min^−1; in [4] (setting [10]), 972 pmol × mg Protein^−1 × min^−1; in data set [5] (setting [10]), 2193 pmol × mg Protein^−1 × min^−1; in data set [6] (setting [10]), 866 pmol × mg Protein^−1 × min^−1; in [7] (setting [10]), 2090 pmol × mg Protein^−1 × min^−1. Besides, the Vmax in [8] (setting [10]) was 752 pmol × mg Protein^−1 × min^−1 and 635 pmol × mg Protein^−1 × min^−1; in data set [9] (setting [10]), 2885 pmol × mg Protein^−1 × min^−1.

B2: OCT1 (Homo sapiens) (protein)
chain: MPTVDDILEQVGESGWFQKQAFLILCLLSAAFAPICVGIVFLGFTPDHHCQSPGVAELSQRCGWSPAEELNYTVPGLGPAGEAFLGQCRRYEVDWNQSALSCVDPLASLATNRSHLPLGPCQDGWVYDTPGSSIVTEFNLVCADSWKLDLFQSCLNAGFLFGSLGVGYFADRFGRKLCLLGTVLVNAVSGVLMAFSPNYMSMLLFRLLQGLVSKGNWMAGYTLITEFVGSGSRRTVAIMYQMAFTVGLVALTGLAYALPHWRWLQLAVSLPTFLFLLYYWCVPESPRWLLSQKRNTEAIKIMDHIAQKNGKLPPADLKMLSLEEDVTEKLSPSFADLFRTPRLRKRTFILMYLWFTDSVLYQGLILHMGATSGNLYLDFLYSALVEIPGAFIALITIDRVGRIYPMAMSNLLAGAACLVMIFISPDLHWLNIIIMCVGRMGITIAIQMICLVNAELYPTFVRNLGVMVCSSLCDIGGIITPFIVFRLREVWQALPLILFAVLGLLAAGVTLLLPETKGVALPETMKDAENLGRKAKPKENTIYLKVQTSEPSGT
Regarding B2, the Km is 281 µM in data set [1] (setting [11]); 806 µM and 1279 µM in data set [2] (setting [11]); 291 µM in [4] (setting [11]); 86.7 µM in data set [5] (setting [11]); 178 µM in data set [6] (setting [11]); 111 µM in data set [7] (setting [11]). The Km was 134 µM and 146 µM in data set [8] (setting [11]); 175 µM in data set [9] (setting [11]). In addition, the Vmax in [1] (setting [11]) was 1211 pmol × mg Protein^−1 × min^−1; in data set [2] (setting [11]), 2137 pmol × mg Protein^−1 × min^−1 and 3145 pmol × mg Protein^−1 × min^−1; in data set [4] (setting [11]), 1318 pmol × mg Protein^−1 × min^−1; in data set [5] (setting [11]) it was 1817 pmol × mg Protein^−1 × min^−1; in data set [6] (setting [11]), 1578 pmol × mg Protein^−1 × min^−1; in data set [7] (setting [11]) it was 1348 pmol × mg Protein^−1 × min^−1. Moreover, the Vmax in data set [9] (setting [11]) is 1710 pmol × mg Protein^−1 × min^−1.

The Km is the concentration of substrate that gives half-maximal velocity.
